In PMC10977697 (PLOS ONE, 2024):

T1: Notch2Long (Notch2 EGF6-EGF12) (human, UniProt Q04721 219-418, biotin on the N-terminal Avi tag (enzymatic))
T1 construct: also called N2L protein; hNotch2; not shown: Avi tag, N-terminal, kept
T1 sequence (looked up): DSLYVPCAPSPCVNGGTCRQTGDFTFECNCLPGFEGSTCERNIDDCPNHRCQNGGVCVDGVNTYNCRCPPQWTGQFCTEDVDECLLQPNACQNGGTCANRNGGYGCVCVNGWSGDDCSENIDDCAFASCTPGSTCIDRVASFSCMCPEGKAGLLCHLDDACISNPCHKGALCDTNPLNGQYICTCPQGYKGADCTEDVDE

B1: Her3-Fc_ChTx2 displayed on M13 phage (designed binder)
chain: VSCTTSKECWSVCQRLHNTSWLGSCMERFCKCVD
notes: Charybdotoxin scaffold; source: M13 phage from E. coli, culture supernatant
B2: Her3-Fc_ChTx1 displayed on M13 phage (designed binder)
chain: VSCTTSKECWSVCQRLHNTSWGEQCVTKFCKCEE
notes: as for B1
B3: Notch2NRR (Notch2 NRR domain) (domain or fragment)
chain: ATCLSQYCADKARDGVCDEACNSHACQWDGGDCSLTMENPWANCSSPLPCWDYINNQCDELCNTVECLFDNFECQGNSKTCKYDKYCADHFKDNHCDQGCNSEECGWDGLDCAADQPENLAEGTLVIVVLMPPEQLLQDARSFLRALGTLLHTNLRIKRDSQGELMVYPYYGEKSAAMKKQRMTRRSLPGEQEQEVAGSKVFLEIDNRQCVQDSDHCFKNTDAAAALLASHAIQGTLSYPLVSVVSESLTPERTQ
modifications: biotin on the N-terminal Avi tag (enzymatic)
notes: also called NRR protein; not shown: Avi tag, N-terminal, kept

Legend:
[1] = target: B3; assay: SPR; settings: both partners purified
HtrA1 = target: T2, HtrA1 (human, UniProt Q92743 23-480, biotin on lysines (Sulfo-NHS-LC-biotin) for panning and SPR); assay: SPR; settings: both partners purified
T2 construct: also called HtrA1 FL; human full-length HtrA1

Her3-Fc Avi-tag = Her3-Fc Avi-tag (UniProt P21860 20-643); assay: SPR; settings: both partners purified
Her3-Fc = Her3-Fc (UniProt P21860 20-643); assay: ELISA; settings: one partner purified
[2] = target: T1, Notch2Long (Notch2 EGF6-EGF12); assay: SPR; settings: both partners purified
[3] = target: T1, Notch2Long (Notch2 EGF6-EGF12); assay: SPR; settings: both partners purified; remark: listed apart in the source
[4] = target: T1, Notch2Long (Notch2 EGF6-EGF12); assay: ELISA; settings: one partner purified
PCSK9 [5] = target: T3, PCSK9 (human, UniProt Q8NBP7 31-692, biotin on lysines (Sulfo-NHS-LC-biotin)); assay: SPR; settings: both partners purified
T3 construct: also called PCSK9FL; hPCSK9 FL

PCSK9 [6] = target: T3, PCSK9; assay: ELISA; settings: one partner purified
N2N-AVR-n6 = target: T4, N2N-AVR-n6; assay: SPR; settings: both partners purified
T4 construct: AVR9 scaffold; source: synthetic peptide, folded in vitro

N2N-AVR-19 = target: T5, N2N-AVR-19; assay: SPR; settings: both partners purified
T5 construct: AVR9 scaffold; source: synthetic peptide, folded in vitro

[7] = target: T6, PCSK9ΔCRD (PCSK9 lacking the C-terminal Cys-rich domain CRD) (human, UniProt Q8NBP7 31-452, biotin on lysines (Sulfo-NHS-LC-biotin)); assay: ELISA; settings: one partner purified
T6 construct: also called PCSK9DCRD; PCSK9dCRDTEV
T6 sequence (Q8NBP7 31-452, stated change not applied): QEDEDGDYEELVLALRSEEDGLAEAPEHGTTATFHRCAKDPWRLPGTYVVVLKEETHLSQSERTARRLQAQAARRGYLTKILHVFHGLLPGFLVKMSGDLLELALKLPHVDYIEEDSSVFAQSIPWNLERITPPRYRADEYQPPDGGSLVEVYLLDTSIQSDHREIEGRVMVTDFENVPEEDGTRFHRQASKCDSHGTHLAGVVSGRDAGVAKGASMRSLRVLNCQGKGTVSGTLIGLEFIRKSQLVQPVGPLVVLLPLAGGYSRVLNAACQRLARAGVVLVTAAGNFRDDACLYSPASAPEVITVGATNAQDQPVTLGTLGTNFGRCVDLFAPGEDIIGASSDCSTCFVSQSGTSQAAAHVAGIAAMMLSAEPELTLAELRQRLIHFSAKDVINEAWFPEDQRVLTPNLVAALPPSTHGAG

T2 sequence (Q92743 23-480): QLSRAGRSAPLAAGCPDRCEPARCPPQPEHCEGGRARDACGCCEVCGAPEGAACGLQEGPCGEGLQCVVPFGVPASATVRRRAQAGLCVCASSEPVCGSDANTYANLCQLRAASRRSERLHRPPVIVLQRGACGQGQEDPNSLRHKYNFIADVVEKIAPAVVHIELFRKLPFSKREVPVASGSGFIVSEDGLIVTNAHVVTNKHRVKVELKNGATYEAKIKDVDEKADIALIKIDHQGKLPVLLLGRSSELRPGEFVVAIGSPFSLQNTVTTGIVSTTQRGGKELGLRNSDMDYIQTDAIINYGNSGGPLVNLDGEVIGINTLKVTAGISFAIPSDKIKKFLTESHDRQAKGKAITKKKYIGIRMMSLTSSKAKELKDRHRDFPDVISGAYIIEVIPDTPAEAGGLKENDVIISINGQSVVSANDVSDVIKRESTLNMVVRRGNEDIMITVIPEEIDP
T3 sequence (Q8NBP7 31-692): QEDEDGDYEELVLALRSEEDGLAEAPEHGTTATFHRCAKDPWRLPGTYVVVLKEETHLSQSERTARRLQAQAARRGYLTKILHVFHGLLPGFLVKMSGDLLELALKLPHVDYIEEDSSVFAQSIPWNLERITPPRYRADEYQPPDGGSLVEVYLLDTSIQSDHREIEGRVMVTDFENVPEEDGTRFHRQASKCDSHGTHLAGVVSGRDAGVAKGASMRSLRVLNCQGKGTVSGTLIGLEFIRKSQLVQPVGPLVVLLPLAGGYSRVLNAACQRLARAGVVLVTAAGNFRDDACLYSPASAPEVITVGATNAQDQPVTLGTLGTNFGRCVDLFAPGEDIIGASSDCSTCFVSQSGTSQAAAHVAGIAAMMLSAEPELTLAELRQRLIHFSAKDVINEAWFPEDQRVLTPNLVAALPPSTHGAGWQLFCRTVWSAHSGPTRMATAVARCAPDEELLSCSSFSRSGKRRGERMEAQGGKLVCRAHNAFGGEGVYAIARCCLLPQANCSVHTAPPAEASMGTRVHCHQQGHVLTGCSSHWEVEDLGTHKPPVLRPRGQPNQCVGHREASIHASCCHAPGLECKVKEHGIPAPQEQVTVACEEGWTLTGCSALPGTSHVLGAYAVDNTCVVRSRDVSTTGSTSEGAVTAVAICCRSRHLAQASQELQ
Sequence of Her3-Fc Avi-tag (P21860 20-643): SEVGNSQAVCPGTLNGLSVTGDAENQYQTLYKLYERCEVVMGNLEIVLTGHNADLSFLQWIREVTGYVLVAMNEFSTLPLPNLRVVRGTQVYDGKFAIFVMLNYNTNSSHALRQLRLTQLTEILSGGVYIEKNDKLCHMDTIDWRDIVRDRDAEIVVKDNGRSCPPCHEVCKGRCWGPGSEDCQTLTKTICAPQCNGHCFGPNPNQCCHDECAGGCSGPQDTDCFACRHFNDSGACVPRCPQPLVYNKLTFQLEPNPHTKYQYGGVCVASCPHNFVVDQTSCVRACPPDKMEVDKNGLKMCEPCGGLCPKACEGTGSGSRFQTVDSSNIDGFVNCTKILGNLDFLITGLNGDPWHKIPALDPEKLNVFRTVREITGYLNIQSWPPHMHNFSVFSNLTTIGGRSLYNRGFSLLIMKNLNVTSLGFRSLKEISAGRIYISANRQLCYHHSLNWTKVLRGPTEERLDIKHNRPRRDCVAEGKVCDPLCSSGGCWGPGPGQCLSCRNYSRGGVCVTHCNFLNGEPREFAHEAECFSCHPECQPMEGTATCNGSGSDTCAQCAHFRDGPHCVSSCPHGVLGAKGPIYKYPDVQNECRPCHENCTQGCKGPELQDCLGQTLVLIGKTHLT
Sequence of Her3-Fc (P21860 20-643): as above

GCRPRWGGWHCKQDSDCLAGCVCGPNGFCG (designed binder) [N2N-EET-57]
Kd [1]: 132 µM

GCRPRFKGWTCKQDSDCLAGCVCGPNGFCG (designed binder) [N2N-EET-n3]
Kd [1]: 180 µM

GCMPRYGGWHCKQDSDCLAGCVCGPNGFCG (designed binder) [N2N-EET-63]
Kd [1]: 166 µM

WIPCISAALGCSCKNKVCYIFSKHLCGESCV (designed binder) [HtrA1_CirA65]
Kd (HtrA1): 2.7 µM

GPTQSWQGRCGGIGYSGPTVCASGTTCQVLTPYWSECLPGAS (designed binder, also called Her3_CBD1) [Her3-Fc_CBD1]
Kd (Her3-Fc Avi-tag): 27 µM

GPTQSWQGRCGGIGYSGPTVCASGTTCQVLTPYWSECLPGAS (designed binder) [Her3-Fc_CBD1 displayed on M13 phage]
ELISA (Her3-Fc): 1.7 | s/n Ratio (Her3-Fc): 20.2

GCIKSHLWCPKTSDCEAGCICEVWIQCG (designed binder) [N2L.EET31.43.24]
Kd [2]: 3.5 µM

GCQQRRWGGWQQCKQDSDCLAGCVCGPNGFCG (designed binder) [N2N-EET-33]
Kd [1]: 55.6 µM

GCGQKRMGGWQWCKQDSDCLAGCVCGPNGFCG (designed binder) [N2N-EET-n13]
Kd [1]: 12 µM

GCGQQRWGGWPLCKQDSDCLAGCVCGPNGFCG (designed binder) [N2N-EET-45]
Kd [1]: 55.9 µM

GCGWTLWHCKQDSDCLAGCVCEPIWWCG (designed binder) [N2L-EET-03]
Kd [3]: 43.7 µM

GCGWTLRHCKQDSDCLAGCVCRPIWYCG (designed binder) [N2L.EET03.10]
Kd [2]: 4.5 µM

GCHRPWWQLWGLCKQDSDCLAGCVCGPNGFCG (designed binder) [HtrA1_EET76]
Kd (HtrA1): 9.5 µM

GCIKSHLWCDPRKDCEAGCICEVWIQCG (designed binder) [N2L.EET31.43.75]
Kd [2]: 0.41 µM

GCGWTLAHCKQDSDCLAGCVCQPRWVCG (designed binder) [N2L-EET-29]
Kd [3]: 102 µM

WIPCISAALGCSCKNKVCYFLYQICGESCV (designed binder) [HtrA1_CirA38]
Kd (HtrA1): 2.5 µM

B1
ELISA (Her3-Fc): 1.6 | s/n Ratio (Her3-Fc): 24.3

VSCTTSKECWSVCQRLHNTSWLGSCMERFCKCVD (designed binder, Charybdotoxin scaffold) [Her3-Fc_ChTx2]
Kd (Her3-Fc Avi-tag): 1.5 µM

ACKGVFDACTWKNWRQSRSRECCPNAVCSDKHKWCKWKL (designed binder, Huwentoxin scaffold) [HtrA1_HwTx69]
Kd (HtrA1): 3.7 µM

ECKGKGAKCSIQWSVYPWKVCCTGSCRSGKC (designed binder, Conotoxin-MVIIA scaffold) [HtrA1_CnTx83]
Kd (HtrA1): 6.4 µM

GCIRSHVWCKQDSDCEAGCICEIWIQCG (designed binder) [N2L.EET31.43.43]
Kd [2]: 3.5 µM

GCIKSHLWCPRDSDCLAGCVCEVWIQCG (designed binder) [N2L.EET31.32.13]
Kd [2]: 35 µM

GCGWTLAHCKQDSDCLAGCVCQPRWVCG (designed binder) [N2L-EET-29 displayed on M13 phage]
ELISA [4]: 0.6 | s/n Ratio [4]: 4.4

GPTQSKYGMCGGIGYSGPTVCASGTTCQVLDPYTSQCLPGAS (designed binder) [PCSK9FL_CBD2]
Kd (PCSK9 [5]): 3.6 µM

GPTQSKYGMCGGIGYSGPTVCASGTTCQVLDPYTSQCLPGAS (designed binder) [PCSK9FL_CBD2 displayed on M13 phage]
ELISA (PCSK9 [6]): 1.9 | s/n Ratio (PCSK9 [6]): 26.8

B2
ELISA (Her3-Fc): 1.7 | s/n Ratio (Her3-Fc): 22.6

VSCTTSKECWSVCQRLHNTSWGEQCVTKFCKCEE (designed binder, Charybdotoxin scaffold) [Her3-Fc_ChTx1]
Kd (Her3-Fc Avi-tag): > 10 µM

B3
Kd (N2N-AVR-n6): 0.8 µM | Kd (N2N-AVR-19): 9.4 µM

ECKGKGAKCSFMTRQGVQTWCCTGSCRSGKC (designed binder, Conotoxin-MVIIA scaffold) [PCSK9_CnTx2]
Kd (PCSK9 [5]): 2.8 µM

ECKGKGAKCSFMTRQGVQTWCCTGSCRSGKC (designed binder, Conotoxin-MVIIA scaffold) [PCSK9_CnTx2 displayed on M13 phage]
ELISA [7]: 1.7 | s/n Ratio [7]: 25.9

GCIRSHLWCPPSASCLAGCVCEVWIQCG (designed binder) [N2L.EET31.32.70]
Kd [2]: 1 µM
